Assay results: PMC7669869 (2020)

Assays:
ADP355 = experiment: FRET; table row labelled IC50, legend says Kd
JT006 = JT006 (UniProt Q15848 155-161, Tyr159 was replaced with Ser | Asp was applied to substitute Ala161, unnatural amino acid Nva incorporated (position not given); FITC labeled peptide in the cell imaging); experiment: FRET; table row labelled IC50, legend says Kd

| Kd (ADP355) [µM] | Kd (JT006) [µM] | Binder |
| --- | --- | --- |
| 1.1 | 1.4 | AdipoR1 (overexpressed in HEK293 cells) (receptor) MSSHKGSVVAQGNGAPASNREADTVELAELGPLLEEKGKRVIANPPKAEEEQTCPVPQEEEEEVRVLTLPLQAHHAMEKMEEFVYKVWEGRWRVIPYDVLPDWLKDNDYLLHGHRPPMPSFRACFKSIFRIHTETGNIWTHLLGFVLFLFLGILTMLRPNMYFMAPLQEKVVFGMFFLGAVLCLSFSWLFHTVYCHSEKVSRTFSKLDYSGIALLIMGSFVPWLYYSFYCSPQPRLIYLSIVCVLGISAIIVAQWDRFATPKHRQTRAGVFLGLGLSGVVPTMHFTIAEGFVKATTVGQMGWFFLMAVMYITGAGLYAARIPERFFPGKFDIWFQSHQIFHVLVVAAAFVHFYGVSNLQEFRYGLEGGCTDDTLL |
| – | 1.2 | AdipoR2 (overexpressed in HEK293 cells) (receptor) MNEPTENRLGCSRTPEPDIRLRKGHQLDGTRRGDNDSHQGDLEPILEASVLSSHHKKSSEEHEYSDEAPQEDEGFMGMSPLLQAHHAMEKMEEFVCKVWEGRWRVIPHDVLPDWLKDNDFLLHGHRPPMPSFRACFKSIFRIHTETGNIWTHLLGCVFFLCLGIFYMFRPNISFVAPLQEKVVFGLFFLGAILCLSFSWLFHTVYCHSEGVSRLFSKLDYSGIALLIMGSFVPWLYYSFYCNPQPCFIYLIVICVLGIAAIIVSQWDMFATPQYRGVRAGVFLGLGLSGIIPTLHYVISEGFLKAATIGQIGWLMLMASLYITGAALYAARIPERFFPGKCDIWFHSHQLFHIFVVAGAFVHFHGVSNLQEFRFMIGGGCSEEDAL |
